Measurements as given in patent US11298402B2, “Lysosomal degradation of lipids and proteins and method of use thereof” (University of Ottawa, priority 2015, dated 2022).

Columns and labels:
mice [1] = experiment: Mice fed a high fat diet for 30 days, adenoviral vector via tail vein; type: in vivo; settings: HFD 30 days, Adv-MG1023 10^9 pfu/mouse, 48 h; vs empty vector
From the text: (§1) Mice were fed with a high fat diet (HFD) for 30 days, and injected with Adv-empty vector (EV) or Adv-MG1023 expressing Arl8b^T34N via the tail vein (10^9 pfu/mouse). Forty eight hours after virus injection, mice were euthanized and dissected to collect liver tissue samples. Liver tissues were frozen fresh in Cryomatrix (ThermoScientific), and then sectioned and processed for oil red o staining. Intrahepatic liver lipid droplets in the liver sections were observed under bright field microscope (Zeiss AxioImager M2).
as §1, with “In FIG. 48, mice” for “Mice”, “Adv-MG1023 vector (FIG. 46)” for “Adv-MG1023”, “tissues.” for “tissue samples.”

[2] = tested on: McA-RH7777 cells (A18-C3); experiment: Autophagic flux (Cyto-ID assay); type: cell-based, rat
Method: In certain non-limiting examples described herein, McA-RH7777 cells stably expressing human apoB-100 and human apoC-III (designated A18-C3) were used for the studies. […] In addition, these studies, particularly those concerning EPA- or DHA-triggered lysosomal motility and CLD degradation, were also performed using primary rat hepatocytes. Transfection of plasmids encoding proteins of interest, or transfection of siRNA specific for silencing target gene expression, was achieved using the FuGENE HP Extreme reagent (Roche). […] Quantification of cell lipid contents was achieved either by direct mass measurement (HPTLC) and counting the number of lipid droplets using Image J Lipid Droplet Counter Plug-In, or indirectly by Western blot analysis of cellular content of ADRP. Secretion of apoB and TG-rich lipoprotein was determined by Western blot analysis and metabolic labeling. Mitochondrial β-oxidation was measured using MitoSOX Red (Life Technologies) in situ. Autophagic flux was determined by using Cyto-ID assay (Enzo Life Science) and by monitoring GFP-LC3 clustering in situ. Interaction of Arl8b and subunits of the HOPS complex was determined in situ by the proximity ligation assay (Olink Biosience). Cytoplasmic pH was measured using the cytosolic pHrodo indicator reagent (Invitrogen). […]

mice [3] = experiment: High fat diet and PO gavage for 10 days (palm oil-induced NASH mouse model); type: in vivo; settings: HFD and PO gavage 10 days; in comparison with Arl8b^Q75L-treated mice
Method: For comparison, control mice were treated with Adv-MG1022 (a vector expressing Arl8b^Q75L) and then subjected to HFD and PO gavage for 10 days. (A) provides visceral views, and liver morphology views, of Arl8b^Q75L and Arl8b^T34N-treated mice, showing enhanced resistance to fatty liver and fat accumulation in Arl8b^T34N-treated mice. (B) provides images of liver sections stained with Oil Red O from mice subjected to a high fat diet and PO gavage for 10 days followed by treatment with Adv-MG1023 vector expressing Arl8b^T34N. For comparison, images of liver sections stained with Oil Red O obtained from mice treated with Adv-MG1022 (a vector expressing Arl8b^Q75L) and then subjected to HFD and PO gavage for 10 days are also provided.
In FIG. 49, mice were subjected to a high fat diet and PO gavage for 10 days, followed by treatment with Adv-MG1023 vector expressing Arl8b^T34N. For comparison, mice were treated with Adv-MG1022 (a vector expressing Arl8b^Q75L; FIG. 46) and then subjected to HFD and PO gavage for 10 days. These experiments may be considered as palm oil-induced NASH mouse models. FIG. 49A provides visceral views, and liver morphology views, of Arl8b^Q75L and Arl8b^T34N-treated mice, showing enhanced resistance to fatty liver and fat accumulation in Arl8b^T34N-treated mice. […]

B1: Arl8b^T34N: putative GDP-bound, dominant negative Arl8b mutant (Thr-to-Asn at 34; SEQ ID NO: 12), expressed from plasmid or adenovirus Adv-MG1023; tagged forms used (protein)
chain: MLALISRLLDWFRSLFWKEEMELTLVGLQYSGKNTFVNVIASGQFSEDMIPTVGFNMRKVTKGNVTIKIWDIGGQPRFRSMWERYCRGVNAIVYMIDAADREKIEASRNELHNLLDKPQLQGIPVLVLGNKRDLPNALDEKQLIEKMNLSAIQDREICCYSISCKEKDNIDITLQWLIQHSKSRRS
modifications: GFP/RFP tags in some forms; T34N substitution, GDP-binding
notes: tagged forms used
Question: How did the abdominal fat accumulation (mice [1]) turn out when B1 was run?
Answer: less abdominal fat

Question: What about the “fatty liver (Oil Red O)” value (mice [1]) of the same molecule?
Answer: more resistant to fatty liver

Question: And the obesity (mice [1])?
Answer: less obese

Question: And the “autophagic flux upon EPA treatment in transfected cells” value [2]?
Answer: does not induce autophagic flux

Question: What about the “fatty liver disease arising from HFD” value (mice [3]) of the same molecule?
Answer: enhanced resistance to fatty liver disease
